Assay results published in patent US20100092998A1 (PENN STATE RESEARCH FOUNDATION, published 2010).

Molecular target: T1, human ubiquitin conjugating enzyme E2 protein Ubc-7 (human, UniProt P60604 1-165, limits assumed)
T1 construct: also called Homo sapiens ubiquitin-conjugating enzyme E2G 2; UCE E2 Ubc7
T1 sequence: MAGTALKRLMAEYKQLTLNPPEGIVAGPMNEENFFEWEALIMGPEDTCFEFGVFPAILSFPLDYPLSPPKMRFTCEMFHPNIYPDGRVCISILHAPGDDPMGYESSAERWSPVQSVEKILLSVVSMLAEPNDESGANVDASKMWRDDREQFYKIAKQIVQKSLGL
Assay: crystal structure of the gp78-Ubc7 fusion protein (SEQ ID No. 12) solved to 2.2 Å

B1: gp78 E3 RING motif with flanking sequence (amino acid residues 322 to 393 of the full-length gp78 E3 protein) (other)
chain: MEARFAVATPEELAVNNDDCAICWDSMQAARKLPCGHLFHNSCLRSWLEQDTSCPTCRMSLNIADNNRVREE
notes: also called gp78 RING; gp78RING motif
B1: binds.
